From the supplement of paper PMC9112550, “Optimization of the antimicrobial peptide Bac7 by deep mutational scanning” (BMC Biology, 2022)

System: Escherichia coli TOP10
Experiment: shrunken log2 fold change of peptide-encoding DNA abundance (4.5 h post-induction vs induction); higher = less antimicrobial activity (less host growth inhibition)
Conditions: time post-induction: 4.5 h; library: site-saturation at positions 5, 18, 19, 20
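Further: peptides expressed intracellularly from a pBAD plasmid library in pooled LB shake-flask culture, induced with 0.3% L-arabinose, DNA abundance read by NGS, three biological replicates, DESeq2 with apeglm shrinkage.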

Sequence | shrunken log2 fold change
RRIRVRPPRLPRPRPRPEKFPRP | -0.208
RRIRVRPPRLPRPRPRPEKYPRP | -0.171
RRIRVRPPRLPRPRPRPELWPRP | 0.459
RRIRVRPPRLPRPRPRPENRPRP | -0.221
RRIRVRPPRLPRPRPRPEPSPRP | 0.0778
RRIRVRPPRLPRPRPRPEQVPRP | 0.0835
RRIRVRPPRLPRPRPRPERYPRP | 0.133
RRIRVRPPRLPRPRPRPESHPRP | -0.138
RRIRVRPPRLPRPRPRPESMPRP | -0.149
RRIRVRPPRLPRPRPRPEVCPRP | 0.0183
RRIRVRPPRLPRPRPRPEWAPRP | 0.0253
RRIRVRPPRLPRPRPRPFDHPRP | -0.557
RRIRVRPPRLPRPRPRPFFHPRP | 0.145
RRIRVRPPRLPRPRPRPFFQPRP | -0.0276
RRIRVRPPRLPRPRPRPFGEPRP | 0.092
RRIRVRPPRLPRPRPRPFGPPRP | -0.543
RRIRVRPPRLPRPRPRPFHCPRP | -0.13
RRIRVRPPRLPRPRPRPFHGPRP | 0.162
RRIRVRPPRLPRPRPRPFHPPRP | -0.309
RRIRVRPPRLPRPRPRPFHYPRP | -0.318
RRIRVRPPRLPRPRPRPFIGPRP | -0.291
RRIRVRPPRLPRPRPRPFINPRP | -0.192
RRIRVRPPRLPRPRPRPFKGPRP | -0.0313
RRIRVRPPRLPRPRPRPFKRPRP | -0.165
RRIRVRPPRLPRPRPRPFLMPRP | -0.208

Sequence | shrunken log2 fold change
RRIRVRPPRLPRPRPRPFMNPRP | -0.836
RRIRVRPPRLPRPRPRPFMTPRP | 0.127
RRIRVRPPRLPRPRPRPFNFPRP | -1.01
RRIRVRPPRLPRPRPRPFNMPRP | -0.19
RRIRVRPPRLPRPRPRPFPPPRP | -0.0462
RRIRVRPPRLPRPRPRPFQCPRP | -0.0433
RRIRVRPPRLPRPRPRPFRCPRP | -0.123
RRIRVRPPRLPRPRPRPFRHPRP | -0.185
RRIRVRPPRLPRPRPRPFRKPRP | -0.0712
RRIRVRPPRLPRPRPRPFRLPRP | -0.267
RRIRVRPPRLPRPRPRPFSFPRP | 1.26
RRIRVRPPRLPRPRPRPFTCPRP | -0.216
RRIRVRPPRLPRPRPRPFTHPRP | -0.222
RRIRVRPPRLPRPRPRPFVDPRP | -0.385
RRIRVRPPRLPRPRPRPFWAPRP | 0.182
RRIRVRPPRLPRPRPRPFWIPRP | -0.182
RRIRVRPPRLPRPRPRPFYAPRP | -0.357
RRIRVRPPRLPRPRPRPFYIPRP | -0.457
RRIRVRPPRLPRPRPRPGATPRP | 0.277
RRIRVRPPRLPRPRPRPGCEPRP | 2.45
RRIRVRPPRLPRPRPRPGCKPRP | 0.32
RRIRVRPPRLPRPRPRPGCLPRP | 0.236
RRIRVRPPRLPRPRPRPGCQPRP | -0.0161
RRIRVRPPRLPRPRPRPGCTPRP | -0.246
RRIRVRPPRLPRPRPRPGCVPRP | 0.267

Sequence | shrunken log2 fold change
RRIRVRPPRLPRPRPRPGDCPRP | 0.404
RRIRVRPPRLPRPRPRPGDTPRP | -0.0412
RRIRVRPPRLPRPRPRPGEGPRP | 0.62
RRIRVRPPRLPRPRPRPGESPRP | 0.0694
RRIRVRPPRLPRPRPRPGEWPRP | -0.00804
RRIRVRPPRLPRPRPRPGFRPRP | 0.205
RRIRVRPPRLPRPRPRPGFWPRP | 0.587
RRIRVRPPRLPRPRPRPGGAPRP | 0.603
RRIRVRPPRLPRPRPRPGGDPRP | 0.0318
RRIRVRPPRLPRPRPRPGGNPRP | -0.0392
RRIRVRPPRLPRPRPRPGGRPRP | 0.317
RRIRVRPPRLPRPRPRPGHFPRP | 0.136
RRIRVRPPRLPRPRPRPGHKPRP | -0.17
RRIRVRPPRLPRPRPRPGHNPRP | -0.131
RRIRVRPPRLPRPRPRPGHPPRP | 0.146
RRIRVRPPRLPRPRPRPGHTPRP | -0.000319
RRIRVRPPRLPRPRPRPGHVPRP | 0.0316
RRIRVRPPRLPRPRPRPGKVPRP | -0.272
RRIRVRPPRLPRPRPRPGLEPRP | 0.0118
RRIRVRPPRLPRPRPRPGLIPRP | -0.359
RRIRVRPPRLPRPRPRPGLMPRP | 0.0219
RRIRVRPPRLPRPRPRPGPYPRP | -0.0621
RRIRVRPPRLPRPRPRPGQTPRP | -0.00176
RRIRVRPPRLPRPRPRPGRLPRP | -0.0194
RRIRVRPPRLPRPRPRPGRTPRP | 0.117
